According to patent publication US12697350B2, “Methods and compositions for treating a premature termination codon-mediated disorder” (Tevard Biosciences, Inc., priority 2019, dated 2026):

Legend:
EGFP-R96X-TGA reporter = test: Flanking sequence length (TABLE 11 vectors Flank300/20/10/0), EGFP-R96X-TGA reporter, Neuro-2a cells (FIGS. 26A-B); assay type: cell-based, mouse; details: single copy, Flank0 vector (random sequence 5′ to tRNA), ~24 hours post transfection
Protocol: “GFP-PTC” indicates cells transfected with the EGFP-R96X-TGA reporter alone (SEQ ID NO: 31), “GFP” indicates cells transfected with a version of the EGFP reporter that lacks a PTC. Readthrough activity was measured by flow cytometry at ~24 hours post transfection. Data are presented as histograms displaying the frequency distribution of the data versus fluorescence intensity for cells expressing EGFP above background.
Expression vectors were generated that encoded an EGFP-R96X-TGA reporter (SEQ ID NO: 31, as described in Example 1) and a single copy of the ArgTCA suppressor tRNA #115 (tRNA-Arg-TCT-2-1-TCA-SUP_no intron, SEQ ID NO: 18, as described in Example 1). The expression vectors included sequences immediately 5′ and 3′ to the tRNA coding sequence that were in each instance derived from the genomic DNA that is 5′ and 3′ to the mouse tRNA-Arg-TCG-1-1 gene but were of varying length.
The expression vectors in TABLE 11 were tested for PTC readthrough activity by flow cytometry in Neuro-2a cells. Transfections were performed using the Lipofectamine 3000 Transfection Reagent according to the manufacturer's protocol.

[1] = system: subject S-PTC reporter (SCN1A PTC linker region, SEQ ID NO: 29); test: Dual fluorescent readthrough reporter (tdTomato/EGFP), subject S-PTC, stable Flp-In-293 line, flow cytometry (FIG. 4); assay type: cell-based, human; details: ArgTCA suppressors; reliably, consistent across multiple assay formats (FIGS. 4-7: subject S-PTC, R1407X-PTC, subject N-PTC dual reporters; EGFP-R96X-TGA in 293 and Neuro-2a)

B1: tRNA-Arg-TCT-2-1-TCA-SUP_no intron (nucleic acid)
chain: GGCTCCGTGGCGCAATGGATAGCGCATTGGACTTCAAATTCAAAGGTTCCGGGTTCGAGTCCCGGCGGAGTCG
modifications: chemistry not fully specified
- suppressor tRNA activity with random 5′ leader sequence (EGFP-R96X-TGA reporter): exhibits activity even with a random 5′ leader sequence
- readthrough activity above baseline [1]: readthrough activity above baseline
